Substitutions are numbered along the chain they refer to. In names and notes the source's numbering stands.

What all share (assay): ITC
Background: ITC needs no label: the signal is the heat of the interaction.

In assay [1] the target is NapA signal peptide (Escherichia coli) (UniProt P33937). The conditions noted are these: cited from earlier work.
Assay [2] addresses ϕMalE-NapAsp^His (E. coli).
Assay [3] deals with ϕMalE-NapAsp^His R6Q (E. coli).
Assay [4] concerns the target ϕMalE-NapAsp^His K10Q (E. coli).
Assay [5] deals with ϕMalE-NapAsp^His M9Q (E. coli).
Assay [6] addresses ϕMalE-NapAsp^His A17Q variant (E. coli).

For the molecule NapD (from UniProt P0A9I5), in assay [1], the Kd was 7 nM.

B1: NapD^His (natural protein)
chain: MHTNWQVCSLVVQAKSERISDISTQLNAFPGCEVAVSDAPSGQLIVVVEAEDSETLIQTIESVRNVEGVLAVSLVYHQQEEQGEETP
In assay [2], B1 registered a Kd, population 1 (two sites) of 3 nM; a Kd, population 2 (two sites) of 143 nM; a N, population 1 (two sites) of 0.35; a N, population 2 (two sites) of 0.64. Besides, in assay [3], the Kd came to 725 nM and the stoichiometry N worked out at 0.6. In addition, in assay [4], the Kd worked out at 1300 nM and the stoichiometry N turned out to be 0.33. In assay [5], this molecule showed a Kd, population 1 (two sites) of 1 nM; a Kd, population 2 (two sites) of 75 nM; a N, population 1 (two sites) of 0.13; a N, population 2 (two sites) of 0.65. Further, in assay [6], the Kd was 1100 nM and the stoichiometry N was 0.16.

B2: NapD I19F (NapD^His variant) (natural protein)
chain: B1 chain with I19F
In assay [2], B2 gave a Kd of 806 nM and a stoichiometry N of 0.97. In assay [6], the Kd, population 1 (two sites) came out at 14 nM; the Kd, population 2 (two sites) was 704 nM; the N, population 1 (two sites) was 0.29; the N, population 2 (two sites) came out at 0.62.

B3: NapD T59I (NapD^His variant) (natural protein)
chain: B1 chain with T59I
In assay [2], B3 registered a Kd of 328 nM and a stoichiometry N of 0.81. Also, in assay [6], the Kd came out at 633 nM and the stoichiometry N amounted to 0.57.

B4: NapD A71T (NapD^His variant) (natural protein)
chain: B1 chain with A71T
In assay [2], B4 yielded a Kd of 313 nM and a stoichiometry N of 0.83. In assay [6], the dissociation constant Kd turned out to be 833 nM and the stoichiometry N was 1.11.

B5: NapD A14T (NapD^His variant) (natural protein)
chain: B1 chain with A14T
Regarding B5, in assay [2], the dissociation constant Kd is 763 nM and the stoichiometry N worked out at 0.7. This molecule returned a Kd in assay [6] of 1870 nM.

B6: NapD I19F/T59I (NapD^His variant) (natural protein)
chain: B1 chain with I19F, T59I
In assay [2], B6 yielded a Kd of 935 nM and a stoichiometry N of 0.39. In assay [6], this molecule gave a Kd, population 1 (two sites) of 22 nM; a Kd, population 2 (two sites) of 261 nM; a N, population 1 (two sites) of 0.25; a N, population 2 (two sites) of 0.65.

B7: NapD A14T/A71T (NapD^His variant) (natural protein)
chain: B1 chain with A14T, A71T
For B7, in assay [2], the Kd was 571 nM and the stoichiometry N was found to be 0.91. In assay [6], the Kd, population 1 (two sites) worked out at 12 nM; the Kd, population 2 (two sites) was 218 nM; the N, population 1 (two sites) amounted to 0.3; the N, population 2 (two sites) was found to be 0.69.

Usually Kd stands for the equilibrium constant for the complex coming apart. For orientation: stoichiometry N means a count of units in the complex or per binding partner.
